# Measured values as given in PMC7887213 (Nature Communications, 2021).
# Numbering of substitutions follows the chain as printed.
# B1: Fab364 (Fab, V domains shown)
# VH: QVQLVESGGGVVQPGGSLRLSCAASGFTFSGYGMHWVRQVPGKGLEWVAIIWFDGSQKYYADSVQGRFTISRDNSKKTLFLRMNSLRAEDTAVYYCAKVHDDEPTQDYWGQGTLVTVSS
# VL: DIQMTQSPSTLSASVGDRVTITCRASQGISTSLAWYQQKPGKAPKLLIYKASSLESGVPSRFSGSGSGTEFTLTITSLQPEDFATYYCQQYKRYWTFGQGTKVEIK
# notes: also called mAb364; source: ExpiCHO cells, purified (HiTrap Protein G, SEC)
# B2: Fab317 (Fab, V domains shown)
# VH: QMQLVESGGGVVQPGRSLRLSCTASGFTFSTYAMHWVRQSPGQGLQWVAVISYHSTNKYYEDSVRGRFTISRDNSKNTLYLQMNSLRAEDTAVYYCARDGYSSSFFDFWGQGTLVTVSS
# VL: DIQMTQSPSTLSASVGDRVAITCRASQSISRWLAWYQQQPGKAPKLLMSGASVLESGVPSRFSGSGSGTEFTLTISSLQPDDFATYYCQHYNSYFVTFGQGTKVEIK
# notes: also called mAb317; source: ExpiCHO cells, purified (HiTrap Protein G, SEC)
# B3: Fab311 (Fab, V domains shown)
# VH: EVQLVESGGGVVPPGRSLRLSCATSGFTFSNYGMHWVRQAPGKGLEWVAIIWYDGSRNFYAASVEGRFTISRDNSKNTLYLQMNSLRVEDTAVYYCARAAYYDTSGYGDYWGQGTLVTVSS
# VL: ESVLTQPPSVSGAPGQTVTISCTGGSSNIGAGYDVHWYQQLPGTAPKLLIYGNINRPSGVPDRFSGSKSGTSASLAITGLQAEDEADYYCQSYDRRLSGSWVFGGGTKLTVL
# notes: also called mAb311; source: ExpiCHO cells, purified (HiTrap Protein G, SEC)
# B4: Fab397 (Fab, V domains shown)
# VH: EVQLVKSGGGLVKPGGSLRLSCAVSGFTFTDAWMSWVRQAPGKGPEWVGRIKSNPDGGTTDYAAPVRGRFTISRDDSKNTLYLQMNNLKTEDTAVYYCITDRDFYRSGGSWGQGTLVTV
# VL: DIVMTQSPLSLPVTPGEPASISCRSRQSLLYSNGDNYLDWYLQKPGQSPQLLIYLGSNRAPGVPDRFSGSGSGTDFTLKISRVEAEDVGVYYCMQTLQTPHTFGQGTKLEIK
# notes: also called mAb397; source: ExpiCHO cells, purified (HiTrap Protein G, SEC)
# B5: Fab356 (Fab, V domains shown)
# VH: VQLVESGGGVVQPGRSLRLSCAASGFTFRNFGMHWVRQTPGKGLEWVAVIWHDGSNKFYADSVEGRFTISRDNSKNMIYLQMNSLRVEDTAIYYCARDSLFYDHDNSGYYGYWGQGTLVTVSS
# VL: QIVMTQSPATVSVSPGERATLSCRASRSVTSKLAWYQQKPGQAPRLLIYGASTRATGIPARFSGSGSGTEFTLTISSLQSEDFAVYFCQQYNNGFTFGPGTKVDFK
# notes: also called mAb356; source: ExpiCHO cells, purified (HiTrap Protein G, SEC)
# B6: Fab224 (Fab, V domains shown)
# VH: EVQLVESGGGLVQPGRSLRLPCTASGFSFGDHAMSWVRQAPGKGLEWVGFIRKTTYGATTHYAAAVRGRFTISRDDSKSIVYLQMNSLKTEDTAVYFCTRVQLDYGPGYQYYGMDVWGQGTTVTVSS
# VL: ESVLTQPPSVSGAPGQRVTISCTGMNSNIGAGYDVYWYQQLPGRAPKLLIYGNSNRPSGVPDRFSGSRSGTSASLAITGLQAEDEADYYCQSYDTSLNGWAFGGGTKLTVL
# notes: also called mAb224; source: ExpiCHO cells, purified (HiTrap Protein G, SEC)
# B7: Fab239 (Fab, V domains shown)
# VH: QVQLVESGGGVVQPGRSLRLSCAASRLTFRNFGMHWVRQTPGKGLEWVAVIWHDGSNKFYADSVEGRFTISRDNSKNTLYLQMNSLRDEDTAIYYCAKDWGGASDRVFDYWGRGTLVIVSS
# VL: DIQMTQSPSTLSASVGDRVTITCRASQSVSTSLAWYQQKPGKAPNLLIYQASTLYRGVPSRFSGSGSGTEFTLTIGSLQPDDFATYYCQHYNSYSRITFGQGTRLEIK
# notes: also called mAb239; source: ExpiCHO cells, purified (HiTrap Protein G, SEC)
# B8: Fab364 (Fab, V domains shown)
# VH: B1 VH
# VL: B1 VL
# notes: as for B1
# B9: Fab395 (Fab, V domains shown)
# VH: QEQLVESGGGVVQPGRSLRLSCAAASEFCFSCYGMHWVRQAPGKGLEWVAVIWHDGSNQHFADSVKGRFTISRDNSKNIMYLQMNSLRAEDTAVYYCASATRYDILTGAFDYWGQGTLVTVSS
# VL: B1 VL with G28S, S32W, T76S, E81D, K92S
# notes: also called mAb395; source: ExpiCHO cells, purified (HiTrap Protein G, SEC)
# B10: Fab317 (Fab, V domains shown)
# VH: B2 VH
# VL: B2 VL
# notes: as for B2
# B11: Fab311 (Fab, V domains shown)
# VH: B3 VH
# VL: B3 VL
# notes: as for B3
# B12: Fab397 (Fab, V domains shown)
# VH: B4 VH
# VL: B4 VL
# notes: as for B4
# B13: Fab399 (Fab, V domains shown)
# VH: EVQLVESGGGLVQPGRSLRLSCTTSGFTFGDYAMSWFRQAPGKGLEWVGFIRSKGFGGTAEYAAFVKGRFTISRDDSRSIAYLQMTSLKPEDTAVYYCSRVGVVIATAVYWGQGTLVTVSS
# VL: DILMTQTPLSLSVTPGQPASISCKSSQSLLDNDGKTYLYWYLQKPGQSPQLLIYEVSNRFSGVPERFSGSGSGTDFTLKIRRVEAEDVGVYYCMQRIDLPWTFGQGTKVEIK
# notes: also called mAb399; source: ExpiCHO cells, purified (HiTrap Protein G, SEC)
# B14: Fab366 (Fab, V domains shown)
# VH: QVQLVQSGAEVKKPGASARVSCKASGYTLTDFYLHWVRQAPGQGLEWMGWLNPHSGGTNYAQKFLGRVSMTRDTSISTAYMELNKLISDDTAVYFCVRSDQEALRGAFDIWGQGTMVFVSS
# VL: DIQMTQSPSSLSASVGDTVTITCRASQSINDYLNWYQQKPGKAPKLLIYATSSLHSGVPSRFSGSGFGTDFTLTISSLQPEDSATYLCQQSHSLWTFGQGTKVEVK
# notes: also called mAb366; source: ExpiCHO cells, purified (HiTrap Protein G, SEC)
# B15: Fab356 (Fab, V domains shown)
# VH: B5 VH
# VL: B5 VL
# notes: as for B5
# B16: Fab224 (Fab, V domains shown)
# VH: B6 VH
# VL: B6 VL
# notes: as for B6
# B17: Fab239 (Fab, V domains shown)
# VH: B7 VH
# VL: B7 VL
# notes: as for B7
# Target: T1, NPNA6 peptide (Ac-[residues removed]-NH2) (Plasmodium falciparum (synthetic CSP …)
# T1 construct: source: synthetic peptide, bought: Innopep Inc
# Experiment: ITC; peptide in the syringe, Fab (~10 uM) in the cell; DPBS; 25 C; single-site binding model; triplicate; apparent affinity
# Conditions: both partners purified
row,Binder,Kd [nM]
1,B1,27
2,B2,111
3,B3,19
4,B4,92
5,B5,30
6,B6,141
7,B7,10

# Target: T2, NPNA2 peptide (Ac-[residues removed]-NH2) (Plasmodium falciparum (synthetic CSP …)
# T2 construct: source: synthetic peptide, bought: Innopep Inc
# Experiment: as above
# Conditions: both partners purified
row,Binder,Kd [nM]
1,B1,47
2,B2,132
3,B3,152
4,B4,2740
5,B5,8270
6,B6,14200
7,B7,641

# Target: T3, NPNA4 peptide (Ac-[residues removed]-NH2) (Plasmodium falciparum (synthetic CSP …)
# T3 construct: source: synthetic peptide, bought: Innopep Inc
# Experiment: as above
# Conditions: both partners purified
row,Binder,Kd [nM]
1,B1,28
2,B2,70
3,B4,255
4,B5,82
5,B6,126
6,B7,20

# Target: T4, Ac-[residues removed]-NH2 (NPNA6 peptide) (Plasmodium falciparum (synthetic CSP …))
# T4 construct: also called 24-mer peptide; source: synthetic peptide; bought: Innopep Inc
# Experiment: ITC; peptide in the syringe, Fab (~10 uM) in the cell; DPBS, 25 °C; single-site binding model; triplicate, mean ± SD; No. of sites = peptide per Fab
# Conditions: both partners purified
row,Binder,stoichiometry N
1,B8,0.445
2,B9,0.432
3,B10,0.723
4,B11,0.386
5,B12,0.73
6,B13,0.737
7,B14,0.67
8,B15,0.354
9,B16,0.749
10,B17,0.348

# Target: T5, Ac-[residues removed]-NH2 (NPNA4 peptide) (Plasmodium falciparum (synthetic CSP …))
# T5 construct: also called 16-mer peptide; source: synthetic peptide; bought: Innopep Inc
# Experiment: as above
# Conditions: both partners purified
row,Binder,stoichiometry N
1,B8,0.634
2,B9,0.608
3,B10,0.95
4,B11,0.578
5,B12,1.3
6,B13,1.74
7,B14,1.21
8,B15,0.542
9,B16,1.26
10,B17,0.572

# Target: T6, Ac-[residues removed]-NH2 (NPNA2 peptide) (Plasmodium falciparum (synthetic CSP …))
# T6 construct: also called 8-mer peptide; source: synthetic peptide; bought: Innopep Inc
# Experiment: as above
# Conditions: both partners purified
row,Binder,stoichiometry N
1,B8,1.41
2,B9,1.35
3,B10,1.36
4,B11,1.27
5,B12,1.18
6,B13,3.23
7,B14,1.21
8,B15,1.29
9,B16,1.59
10,B17,1.34
